Patent publication US20250136696A1 (HARBOUR BIOMED SHANGHAI, published 2025)

T1: human B7-H7 on the cell surface (human, UniProt Q9UM44 23-414)
T1 construct: whole, on cells; also called hB7-H7; hu B7-H7
T1 sequence (looked up): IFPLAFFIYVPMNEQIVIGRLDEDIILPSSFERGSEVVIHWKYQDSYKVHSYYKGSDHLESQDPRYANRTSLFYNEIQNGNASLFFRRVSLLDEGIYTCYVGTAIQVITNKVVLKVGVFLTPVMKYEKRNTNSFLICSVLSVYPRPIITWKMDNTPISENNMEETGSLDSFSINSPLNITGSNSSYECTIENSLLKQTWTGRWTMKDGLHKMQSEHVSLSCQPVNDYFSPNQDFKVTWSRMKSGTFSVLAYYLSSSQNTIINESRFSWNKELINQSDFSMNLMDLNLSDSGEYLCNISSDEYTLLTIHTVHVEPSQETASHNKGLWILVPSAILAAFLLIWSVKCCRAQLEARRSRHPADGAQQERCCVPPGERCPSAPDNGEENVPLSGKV

B1: PR003264 (antibody, human IgG1, kappa)
heavy: not shown
light: DIQLTQSPSFLSASVGDRVTITCRASQGISSYFAWYQQKPGKAPKLLIYAASTLQSGVPSRFSGSGSGTEFTLTISSLQPEDFATYYCQHLNRYPWTFGQGTKVEIKRTVAAPSVFIFPPSDEQLKSGTASVVCLLNNFYPREAKVQWKVDNALQSGNSQESVTEQDSKDSTYSLSSTLTLSKADYEKHKVYACEVTHQGLSSPVTKSFNRGEC
notes: Human IgG1; also called 77G10D3
B2: PR004263 (antibody, human IgG1, kappa, L234A L235A)
heavy: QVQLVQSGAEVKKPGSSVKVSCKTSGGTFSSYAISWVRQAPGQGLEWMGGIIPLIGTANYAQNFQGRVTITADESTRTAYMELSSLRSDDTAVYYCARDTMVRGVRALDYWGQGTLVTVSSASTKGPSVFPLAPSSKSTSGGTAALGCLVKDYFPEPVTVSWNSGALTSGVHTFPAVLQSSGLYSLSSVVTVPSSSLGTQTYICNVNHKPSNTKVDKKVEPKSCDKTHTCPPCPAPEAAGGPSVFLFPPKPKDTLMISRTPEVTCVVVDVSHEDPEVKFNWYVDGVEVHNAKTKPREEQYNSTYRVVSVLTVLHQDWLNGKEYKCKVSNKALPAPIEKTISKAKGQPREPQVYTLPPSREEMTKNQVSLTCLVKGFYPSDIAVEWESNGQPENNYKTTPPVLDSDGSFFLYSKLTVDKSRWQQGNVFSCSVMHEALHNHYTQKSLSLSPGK
light: DIQLTQSPSFLSASVGDRVTITCRASQGISSYFAWYQQKPGKAPKLLIYAASTLQSGVPSRFSGSGSGTEFTLTISSLQPEDFATYYCQHLNRYPWTFGQGTKVEIKRTVAAPSVFIFPPSDEQLKSGTASVVCLLNNFYPREAKVQWKVDNALQSGNSQESVTEQDSKDSTYSLSSTLTLSKADYEKHKVYACEVTHQGLSSPVTKSFNRGEC
notes: Variant of PR003264; Human IgG1 with LALA mutation in Fc

Experiments:
[1] = molecular target: T1, human B7-H7 on the cell surface; test: flow cytometry, LS180 cells
Procedure: This example was intended to study the in vitro activity of H2L2 monoclonal antibodies against human B7-H7 in binding to human/cynomolgus monkey B7-H7. Since homologous molecules of B7-H7 were not present in mice, the detection was not performed. […] The cells were adjusted to a cell density of 1×10⁶ cells/mL, respectively. The cells were seeded in a 96-well V-bottom plate (Corning, #3894) at 100 μL/well, and the antibody to be tested at 2× final concentration with 3-fold concentration gradient dilution was then added at 100 μL/well. The cells were incubated at 4° C. for 2 hours in the dark. After the incubation, the cells were rinsed twice by adding pre-chilled PBS containing 2% BSA at 100 μl/well, and centrifuged at 500 g at 4° C. for 5 minutes, and the supernatant was discarded. […] The cells were washed twice by adding pre-chilled PBS containing 2% BSA at 100 μL/well, and centrifuged at 500 g at 4° C. for 5 minutes, and the supernatant was discarded. Finally, the cells were resuspended in pre-chilled PBS containing 2% BSA at 200 μL/well, and the fluorescence signal values were read using an ACEA Novocyte3000 flow cytometer.

[2] = molecular target: T1, human B7-H7 on the cell surface; test: flow cytometry on HEK-293/hB7-H7 cells after 0-14 days in 90% human serum at 37 C
Procedure: The cells were adjusted to a cell density of 1×10⁶ cells/mL, respectively. The cells were seeded in a 96-well V-bottom plate (Corning, #3894) at 100 μL/well, and the antibody to be tested at 2× final concentration with 3-fold concentration gradient dilution was then added at 100 μL/well. The cells were incubated at 4° C. for 2 hours in the dark. After the incubation, the cells were rinsed twice by adding pre-chilled PBS containing 2% BSA at 100 μL/well, and centrifuged at 500 g at 4° C. for 5 minutes, and the supernatant was discarded. […] The cells were washed twice by adding pre-chilled PBS containing 2% BSA at 100 μL/well, and centrifuged at 500 g at 4° C. for 5 minutes, and the supernatant was discarded. Finally, the cells were resuspended in pre-chilled PBS containing 2% BSA at 200 μL/well, and the fluorescence signal values were read using an ACEA Novocyte3000 flow cytometer.

Binder | EC50 [1] [nM] | Maximum MFI [1] [MFI] | EC50 (read off the curve) [2] [nM]
B1 | 2.2 | 21800 | 
B2 | 3.08 | 24000 | ~1
